Experimental data taken from article PMC11146434, “Mitigation of TDP-43 toxic phenotype by an RGNEF fragment in amyotrophic lateral sclerosis models” (Brain, 2023).
Values belong to the molecule of their own block, whether it stands above or below them.

B1: 3'-biotinylated RNA oligo (ssRNA)
RNA: GUGUGUGAAUGAAUAAA
B2: His-MBP-RGNEF^1–275 (domain or fragment, human, UniProt Q8N1W1 1-275, looked up)
chain: MELSCSEAPLYGQMMIYAKFDKNVYLPEDAEFYFTYDGSHQRHVMIAERIEDNVLQSSVPGHGLQETVTVSVCLCSEGYSPVTMGSGSVTYVDNMACRLARLLVTQANRLTACSHQTLLTPFALTAGALPALDEELVLALTHLELPLEWTVLGSSSLEVSSHRESLLHLAMRWGLAKLSQFFLCLPGGVQALALPNEEGATPLDLALREGHSKLVEDVTNFQGRWSPSFSRVQLSEEASLHYIHSSETLTLTLNHTAEHLLEADIKLFRKYFWDR
notes: Detailed purification protocol is in the Supplementary Methods; also called His-NF242; NF242 (in the SPR experiments); source: E. coli, purified (Ni-IMAC); not shown: MBP, N-terminal, kept
B3: His-RRM-1 (domain or fragment, human, UniProt Q13148 101-191, looked up)
chain: QKTSDLIVLGLPWKTTEQDLKEYFSTFGEVLMVQVKKDLKTGHSKGFGFVRFTEYETQVKVMSQRHMIDGRWCDCKLPNSKQSQDEPLRSR
notes: source: E. coli, purified (Ni-IMAC)

Key:
His-MBP-RGNEF^1–275 = target: B2; assay: SPR; His-MBP-RGNEF^1–275 amine-coupled on a carboxymethyl dextran chip; TDP-43 fragments as analytes; 1× PBS, 0.1% Tween-20; 22°C
His-TDP-43 1-269 [1] = target: T1, His-TDP-43 1-269 (human, UniProt Q13148 1-269); assay: SPR; 100 nM TDP-43 1-269, no NF242; 10 mM Tris pH 8.0, 150 mM NaCl, 2 mM MgCl2, 0.05% Tween-20, 1 uM BSA; 30 min pre-incubation at room temperature; SPR at 22 C (stated for the protein-protein SPR); 80 RIU RNA immobilized; conditions: protein: recombinant; tags: N-terminal 6xHis (pQE30); label: 3' biotin
Target sequence in this assay (Q13148 1-269): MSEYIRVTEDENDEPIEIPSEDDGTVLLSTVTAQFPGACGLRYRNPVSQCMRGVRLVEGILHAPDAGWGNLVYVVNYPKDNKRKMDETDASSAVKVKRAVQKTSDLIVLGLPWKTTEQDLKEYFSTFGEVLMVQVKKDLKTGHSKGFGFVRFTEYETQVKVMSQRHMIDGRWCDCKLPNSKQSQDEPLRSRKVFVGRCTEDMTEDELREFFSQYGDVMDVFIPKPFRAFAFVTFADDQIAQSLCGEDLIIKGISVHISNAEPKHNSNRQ

His-GST-TDP-43^wt = target: T2, His-GST-TDP-43^wt (human, UniProt Q13148 1-414); assay: SPR; His-MBP-RGNEF^1–275 amine-coupled on a carboxymethyl dextran chip (2000 to 8000 µRIU); His-GST-TDP-43^wt as analyte; 20 mM HEPES pH 7.5, 50 mM KCl, 0.5 mM MgCl2, 50 mM NaCl, 0.05% Tween-20; 22°C; conditions: both partners purified
T2 construct: also called full-length wild-type TDP-43 with an N-terminal GST fusion; source: E. coli, purified (Ni-IMAC); not shown: GST, N-terminal, kept

His-TDP-43 1-269 [2] = target: T1, His-TDP-43 1-269; assay: SPR; competition: 3′-biotinylated RNA oligo on a neutravidin chip; 100 nM His-TDP-43^1–269 pre-incubated 30 min at room temperature with 1 or 10 μM His-MBP-RGNEF^1–275, then injected; 10 mM Tris pH 8.0, 150 mM NaCl, 2 mM MgCl2, 0.05% Tween-20, 1 μM BSA

T2 sequence (Q13148 whole entry, the tested form may be a part): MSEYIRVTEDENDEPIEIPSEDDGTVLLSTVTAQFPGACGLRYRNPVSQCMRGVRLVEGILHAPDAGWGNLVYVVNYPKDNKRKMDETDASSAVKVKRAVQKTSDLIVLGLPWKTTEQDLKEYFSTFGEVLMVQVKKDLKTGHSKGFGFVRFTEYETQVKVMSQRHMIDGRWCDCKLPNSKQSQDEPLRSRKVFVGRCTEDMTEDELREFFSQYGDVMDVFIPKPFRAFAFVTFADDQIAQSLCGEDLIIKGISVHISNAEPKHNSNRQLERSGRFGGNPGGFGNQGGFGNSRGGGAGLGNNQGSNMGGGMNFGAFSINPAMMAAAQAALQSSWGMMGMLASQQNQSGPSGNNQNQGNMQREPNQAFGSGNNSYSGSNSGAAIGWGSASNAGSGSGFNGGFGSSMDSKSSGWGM

- Kd (His-MBP-RGNEF^1–275): 4110 nM
Molecule: His-TDP-43^1–269 (from UniProt Q13148 1-269) (domain or fragment)

Molecule: B1
- binding result (His-TDP-43 1-269 [1]): binds

Molecule: B2
- Kd (His-GST-TDP-43^wt): 1780 nM
- percent reduction of the signal of TDP-43 on the RNA chip at 1 μM NF242 (His-TDP-43 1-269 [2]): 10%
- percent reduction of the signal of TDP-43 on the RNA chip at 10 μM NF242 (His-TDP-43 1-269 [2]): 50%

Molecule: B3
- binding result (His-MBP-RGNEF^1–275; both partners purified): binds
